Data as given in paper PMC11224324, “Structural and functional insights underlying recognition of histidine phosphotransfer protein in fungal phosphorelay systems” (Communications Biology, 2024).

B1: Histag-Ct_HPt (residues 9-175), labelled with Red-Tris NTA dye (natural protein)
chain: ADRAQDHNNNNTPRNSNYVVEEEEVSEEEEEAIMMPDFGDHVDTSIFGQILEMDEGDDHDFSAPLVLNFFEQAEETFQKMETALNNKDLPELSKLGHFLKGSSATLGFTKIRDSCQLIQQYGHGLNVDGSSEPDEGVCLKKIAEALASARVDTVALHKMMREFFEY
modifications: Red-Tris NTA Dye bound to the Histag
B2: REC_(hHK3) N1107A/N1110A, double mutant of the REC-1 domain of hHK3 from Chaetomium thermophilum (domain or fragment)
chain: ENRATPSLADNTRSFEILLAEDAAVAQRLAVKILEKYHHVVTVVGNGEEAVEAVKRKKFDVILMDVQMPVMGGFEATAKIREYEASLPTPQRTPIIALTAHAMMGDREKCLEAQMDEYLSKPLQQANLIQTILKCA

How the values were obtained:
Assay in all cases: MST; Histag-Ct_HPt labelled with Red-Tris NTA dye held constant; REC-1 domain in sixteen two-fold dilutions from 1 mM (0.32 mM for REC_hHK6); PBS + 0.05% Tween-20; medium MST power; hyperbolic fit, 1:1 model; mean of two titrations
Conditions in all cases: both partners purified
[1] = molecular target: T1, REC_(hHK6), REC-1 domain of hybrid histidine kinase hHK6 (group VI, ortholog of Sln1) from Chaetomium … (Chaetomium thermophilum)
T1 construct: REC-1 (receiver) domain of hHK6, CTHT_0050920, group VI hybrid histidine kinase of C. thermophilum (protein ends at residue 1290); also called REC_(hHK6)-BeF; not shown: His6, N-terminal, cleaved

[2] = molecular target: T2, REC_(hHK3), REC-1 domain of hybrid histidine kinase hHK3 (group III, ortholog of Nik1) from Chaetomium … (Chaetomium thermophilum)
T2 construct: REC-1 (receiver) domain of hHK3, CTHT_0053860, group III hybrid histidine kinase of C. thermophilum; not shown: His6, N-terminal, cleaved

[3] = molecular target: B1

Row | Binder | Kd [1] | Kd [2] | Kd [3]
1 | B1 | 13 ± 0.04 µM | 28 ± 0.1 µM | –
2 | B2 | – | – | 46 ± 0.07 µM
